What all share (assay): IEDB peptide-MHC binding, purified MHC/competitive/radioactivity; filed as Kd, often an IC50 or EC50 that approximates it; ≥ and ≤ were set here for values at or beyond the usual limits of such assays
Test [1] addresses HLA-A*23:01.
In test [2] the target is HLA-A*24:02.
Test [3] deals with HLA-A*29:02.
The target of test [4] is HLA-A*26:01.
For test [5], the target named is HLA-A*01:01.
Test [6] concerns the target HLA-A*30:02.
For test [7], the target named is HLA-A*02:06. The settings on record: source organism: Dengue virus 1 Brazil/97-11/1997.
The target in test [8] is HLA-B*08:01. The conditions noted are these: source organism: Dengue virus 1 Brazil/97-11/1997.
Test [9] deals with HLA-B*07:02.
The mark [10] stands for this setting: source organism: Mammarenavirus brazilense.
The mark [11] stands for this setting: source organism: Dengue virus 3 Martinique/1243/1999.
The mark [12] stands for this setting: source organism: SARS coronavirus Tor2.
The mark [13] stands for this setting: source organism: Dengue virus 4 Philippines/H241/1956.
Setting [14] is: source organism: Mammarenavirus juninense.
[15] abbreviates: source organism: Mammarenavirus machupoense.
Where [16] appears, read: source organism: Mammarenavirus guanaritoense.
The mark [17] stands for this setting: source organism: Mammarenavirus tacaribeense.
The mark [18] stands for this setting: source organism: Dengue virus 2 Jamaica/1409/1983.
Setting [19] is: source organism: Dengue virus 3 Singapore/8120/1995.
[20] abbreviates: source organism: Mammarenavirus whitewaterense.

Some results are limits rather than exact numbers.

Take LTHSINALI: the Kd was 1010 nM in test [1] (setting [10]), 6720 nM in [2] (setting [10]) and 12800 nM in test [3] (setting [10]).

Turning to LTMKNKAWM, in test [4] (setting [11]), the Kd was no less than 45300 nM.

Turning to LYLYALIYF, the Kd in test [5] (setting [12]) was 5160 nM; in [1] (setting [12]) it was 0.0785 nM; in test [2] (setting [12]), 1.01 nM; in test [4] (setting [12]), 12600 nM; in test [3] (setting [12]), 0.143 nM; in test [6] (setting [12]), no less than 81100 nM.

In the case of MLLNRFTMA, the Kd turned out to be 5.12 nM in [7] and 10.2 nM in test [8].

Consider MTDKTPVHS, for which the Kd in [5] (setting [13]) was found to be 6570 nM.

For NVSLVKPTVY, the Kd is 12400 nM in test [5] (setting [12]); no less than 70000 nM in test [1] (setting [12]); no less than 70300 nM in test [2] (setting [12]); 16300 nM in test [4] (setting [12]); 2410 nM in [3] (setting [12]); 1170 nM in test [6] (setting [12]).

Regarding PFWITAIYVF, the Kd is 410 nM in test [5] (setting [12]); 0.189 nM in test [1] (setting [12]); 1.92 nM in [2] (setting [12]); 724 nM in [4] (setting [12]); 657 nM in test [3] (setting [12]); 16000 nM in test [6] (setting [12]).

Turning to PTEQVDTLL, the Kd in test [5] (setting [13]) stood at 14800 nM.

As to PYIGSRSQI, the figures for the Kd in [1] (setting [14]), in test [2] (setting [14]) and in [3] (setting [14]) were 312 nM, 1080 nM and no less than 21000 nM, respectively.

In the case of QCGDPSSFDY, the Kd in test [5] (setting [15]) is 1400 nM; in [1] (setting [15]) it was no less than 28800 nM; in test [2] (setting [15]) it was no less than 70300 nM; in test [4] (setting [15]), no less than 69700 nM; in test [3] (setting [15]) it was 5830 nM; in test [6] (setting [15]) it was 3310 nM.

Regarding QFKDNVILL, the Kd in [5] (setting [12]) was no less than 51800 nM; in test [1] (setting [12]), 1150 nM; in test [2] (setting [12]), 1130 nM; in [4] (setting [12]) it was no less than 27500 nM; in test [3] (setting [12]) it was no less than 21700 nM; in test [6] (setting [12]), no less than 40000 nM.

As to RPRWLDARV, the Kd in test [9] (source organism: Dengue virus 4 Dominica/814669/1981) came out at 1.7 nM.

With RPTPKGAVMD, in test [9] (setting [13]), the Kd turned out to be 100 nM.

Consider SAIFFTTSLF, for which the Kd in test [1] (setting [16]) came to 80.8 nM; in [2] (setting [16]) it was 452 nM; in test [3] (setting [16]) it was 87.9 nM.

With SFYCDPKRFF, the Kd in test [1] (setting [17]) is 491 nM; in test [2] (setting [17]), 1980 nM; in test [3] (setting [17]), 156 nM.

With SGALDTTSY, the Kd was no less than 80600 nM in test [5] (setting [12]); no less than 77800 nM in test [1] (setting [12]); no less than 77600 nM in [2] (setting [12]); no less than 55500 nM in test [4] (setting [12]); 168 nM in test [3] (setting [12]); 20.9 nM in [6] (setting [12]).

With SPILSITISE, the Kd in [9] (setting [18]) amounted to 2150 nM.

In the case of SPLLLTSSQQ, the Kd in [9] (setting [18]) was 1220 nM.

In the case of SPTSYLDVDL, in [9] (setting [11]), the Kd is 1640 nM.

With SSPDAVTTY, the Kd is 5490 nM in [5] (setting [12]); no less than 77800 nM in test [1] (setting [12]); no less than 77600 nM in test [2] (setting [12]); 9740 nM in [4] (setting [12]); no less than 21600 nM in test [3] (setting [12]); 3290 nM in [6] (setting [12]).

As to STVQQLTKRF, in test [4] (setting [18]), the Kd came to 6790 nM.

Consider VSSPDAVTTY, for which the Kd in test [5] (setting [12]) was 223 nM; in test [1] (setting [12]), no less than 70000 nM; in test [2] (setting [12]), no less than 70300 nM; in test [4] (setting [12]) it was 3700 nM; in [3] (setting [12]), 1840 nM; in test [6] (setting [12]) it was 11.3 nM.

Take VTTWEDVPY: the Kd in test [5] (setting [19]) came to 520 nM; in test [6] (setting [19]) it was 248 nM.

Regarding VVRPPFNML, in test [9] (setting [13]), the Kd amounted to 20.5 nM.

VWKRFEHLCV: the dissociation constant Kd in test [5] (setting [20]) is no less than 70400 nM; in test [1] (setting [20]), 7990 nM; in test [2] (setting [20]) it was no less than 47600 nM; in test [4] (setting [20]), no less than 69700 nM; in [3] (setting [20]), no less than 71400 nM; in test [6] (setting [20]), 10500 nM.

In the case of WFSQRGGSY, the Kd is 182 nM in test [5] (setting [12]); no less than 77800 nM in test [1] (setting [12]); no less than 62500 nM in [2] (setting [12]); 2160 nM in test [4] (setting [12]); 0.847 nM in test [3] (setting [12]); 11 nM in test [6] (setting [12]).

Take YTQMCDHRL: in [5] (source organism: Dengue virus 1 Brazil/97-11/1997), the Kd is 5710 nM.
